Laboratory results taken from the supplement of paper PMC12636428.

System: Saccharomyces cerevisiae
Assay: transcriptional activation domain activity (GFP:mCherry ratio, weighted mean of sorted bins, harmonized to initial dataset scale) (arbitrary fluorescence ratio units); higher = stronger transcriptional activation
Conditions: beta-estradiol 1 µM; induction time 4 h
Procedure, shortened: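 Yeast diploids with a GFP reporter received barcoded protein tiles, fused to an estradiol-inducible synthetic transcription factor, at the URA3 locus. Cultures were diluted 1:5 into SC holding 1 uM beta-estradiol, incubated 4 hours at 30 °C, sorted into 8 bins on GFP:mCherry ratio, and sequenced for barcodes, with tiles under 50 reads discarded. Activation activity values come from the read-weighted mean of bin median fluorescence, averaged across barcodes and linearly placed on the initial dataset scale.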

With “REGEGRGERGREGAGRERGGGKGVGGGEGGGERTIRLKGRKGDSNETTRRKEE” the “transcriptional activation domain activity” value was 31700.

With “MLVLLLLLLLLLLLLFLLLPLLLLLPLLLCLYMPCIVRCSNHEVHILLISGTG” the “transcriptional activation domain activity” value was 72900.

With “LDGSVDTSAPLDTGLFNSWMDIFQAFPFPAEGFTPDSFNDNYPIDPNQTFLTI” the “transcriptional activation domain activity” value was 141000.

“FFFSFFFFLFLFLFHLRFFPLTFVPFFIPCLLLLSSSLLLCCVVWYLFMRLFS” was tested, and the “transcriptional activation domain activity” value was 46700.

With “MQVISYIFFCHVKYLFFVYSLHVVSNTNLSSYMLFNWLYLILLRLFVYIIYFI” the “transcriptional activation domain activity” value was 71300.

For “MRNEYYFFTSLSCIFSVLCFVSSFFYLVFSSLVLFFFFFLTGLFYLKFFCWVF”, the “transcriptional activation domain activity” value was 39400.

In the case of “EDENKSKEETQEKKTNEPELNENNKDIAKKGEEEEEEEEADKDNNKTKKKKKN”, the “transcriptional activation domain activity” value is reported as 27500.

With “SQEESIDNENQKVKEEEIEISVNNIKTEVEKEELKKDNKKGKKVVNKKEIKEE” the “transcriptional activation domain activity” value was 39900.

“RRVTSMRLDTEGYVGVLGVEVDFRGRMFDLTADILVRVRYCLQSTILLLEIPL” was tested, and the “transcriptional activation domain activity” value was 55100.

“TPFLFYRPLPPQYFCKFLLYYGGLVWWVLYSGFFFYFILGRGYRKIFLSYFCL” was tested, and the “transcriptional activation domain activity” value was 53100.

With “QAGSTGSSSRKRKKAVTDGEETPSTSEPRRLRRSHEACARCRSKKIKASACDS” the “transcriptional activation domain activity” value was 28300.

With “MPPCGLVSLTCLTELVLGLNITACVVILVDGNHLIYILSLFFWCWILLTLPAT” the “transcriptional activation domain activity” value was 35500.

With “EAAAAAKRKRRKATSDSPEQARRGHVARKTAVACNFCRGRKLRCNGAKPSCSN” the “transcriptional activation domain activity” value was 22800.

For “WTGWEGGRYLPFFFFPFFFFFATCCFSLFMILFFVFFFPGRISISFRLLLFFL”, the “transcriptional activation domain activity” value was 43000.

For “EALPDDLYFTDFVSPFTAAATTSVTTKTVKDTTPATNHMDDDIAMFDSLATTQ”, the “transcriptional activation domain activity” value was 47700.

“QRGKPYDLHSSDGSSEKKRTEKVGLSAGKQHMWILLRPKAAMWAVCVVLASPE” was tested, and the “transcriptional activation domain activity” value was 38700.

“MFSFYMPTPPPFFPFPLVLFFFFFAVHRFHKISTFSTPFFFWIHFIVVLLFSF” was tested, and the “transcriptional activation domain activity” value was 58600.

“KKAAAALNGEAADGEATAEGEGAPKREPRAKKPRTPRPRRAPGEEPAGEPSKN” was tested, and the “transcriptional activation domain activity” value was 44900.

With “MIIIDIFLSIYMILSYLYLHLFIFHVHMNPSYFIYFLAFSVKEIFIVSWFFFI” the “transcriptional activation domain activity” value was 57300.

“AEAGTSKTAAKAEATPVEGTSAPVEGKAQKKEKKEKKPPAEEAGAGKKKGGAA” was tested, and the “transcriptional activation domain activity” value was 16100.

For “TAVLMQLINLTVFICLASFGSLVFATWLPLIFQYYAIHLRDLLLHDASLIVNW”, the “transcriptional activation domain activity” value was 39100.

For “FFCCSSLKRDMRFRSYLWAVWVGVVTGVKTSINLVSYRGLPPNNIIIKNLFFA”, the “transcriptional activation domain activity” value was 67700.

“MHFAVKVKMQLFFFIFSLTLFFFLWYFFFFFPVVYGVFSSGVLGVFFSLFSFF” was tested, and the “transcriptional activation domain activity” value was 66200.

With “NGIFILHHKWVIPTPFASHAFNPFDGFLQSLPYHLYVFMLPMHKWLYLGMFVF” the “transcriptional activation domain activity” value was 71400.

“AASQNVDAQPKPKPAQDNDLESESGTSSSSSSSSESGSESDSGSDDGSASGSG” was tested, and the “transcriptional activation domain activity” value was under 6570.

In the case of “SAPNDSTTAPTNASNIANTASVNKQMYFMNMNMNNNPHALNDPSILETLSPFF”, the “transcriptional activation domain activity” value is reported as 71400.

For “PAYEMCTYVWGFRGACLGLLWLIWFVVLYFVLRIRNIHSSFNERIESIIICFL”, the “transcriptional activation domain activity” value was 48800.

For “NGPGTCVVLVLITYIRRMLGLRYSQVIYVESFARVKKLSLSGKLLKPFVDKFV”, the “transcriptional activation domain activity” value was 54600.

In the case of “YAVPNDFVVTGGLLLLRYDRLNELPLGTRANSSVLVCVYRTWIALMRYLLAGP”, the “transcriptional activation domain activity” value is reported as 62800.

“IVITCLPVTLLLFGKMVDVLDDYYLGIFELVLLFFAFYIFPIFYIFARVILLV” was tested, and the “transcriptional activation domain activity” value was 53800.

In the case of “MTSWPLLPPYSIHAMIKMIAFSSLFCSFFSLHLFFYYYLPLYIAVFIFFIVTH”, the “transcriptional activation domain activity” value is reported as 32400.

“TEYIYQGSNGLRWPPLAFPEHFVYPTEYIAHVYSWLILGLSYVYLLLLVFFYY” was tested, and the “transcriptional activation domain activity” value was 46100.

“VFERVRLDWLILFDLRMWKKVRNDLRALYISTVVTIPEFKRILGLRFAALYTT” was tested, and the “transcriptional activation domain activity” value was 51300.

In the case of “MGIGIHTFFYFWLLIFLFLFLFLFFSWFFFFVIVIIFFNYFIFLRAWMWIAGL”, the “transcriptional activation domain activity” value is reported as 41600.

For “EAKAEEAAPTEAPAADAPAAEPAAEASATEEAKPAEAAKEEKKEDRPKSPSLL”, the “transcriptional activation domain activity” value was 8420.

With “FLDLVLPHVGRWSDFVAYIPGVTVVEVNYLLRRLGSPKCGPALLLEKLHLFFF” the “transcriptional activation domain activity” value was 54400.

In the case of “ATAAAAVKSPRSKSKEPKKSLDAAAAVAATSPAPVAAEEPAAAAVVEEPAKPA”, the “transcriptional activation domain activity” value is reported as 41400.

In the case of “CTVVFLACTVVYGFMVVTSLLFHLSGFLFHVTTTFPFFFFFFFTLLFFLLHTF”, the “transcriptional activation domain activity” value is reported as 38000.

“EQEVQEERARTGTKGRKRALDDDAAKEEKEEKKEKPEKKEKATKSGKATSAAS” was tested, and the “transcriptional activation domain activity” value was 20800.

In the case of “TGGAGATRTSKAKADRHVTQAGHRRLRAQAACERCRRRKLKCEPSGASCVACV”, the “transcriptional activation domain activity” value is reported as 48800.

For “HQLGATESGLRAKNDGKLVQAEARAEGRVTFRTYLTYVRAAGTWTWMMTIFFL”, the “transcriptional activation domain activity” value was 52800.

In the case of “EPGEEYHHSNGTNTDNNETTGADDTDDNNNNNNNNNKNGNNSSSTINNNNNNY”, the “transcriptional activation domain activity” value is reported as 35700.
